Measured values taken from the supplement of paper PMC9233669.
Variants at the floor of the assay were thinned out.

What was measured:
biotinyl-Val-oxazolone = experiment: self-aminoacylation, catalytic enhancement (BVO) (fold over background); higher = more active; k-Seq, kA / k0A0; sequences stand for … in GGGAAUGGAUCCACAUCUACGAAUUC…UUCACUGCAGACUUGACGAAGCUG
In short: (§1)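 The uncatalyzed rate is the low-activity peak of a bimodal Gaussian fit, and catalytic enhancement is median kA divided by it. The kA values came from pseudo-first-order fits, with 1000 bootstraps, of per-sequence fraction reacted measured by streptavidin capture, triplicate qPCR and Illumina sequencing. Mutagenized RNA pools with a 21-nt variable region (0.43 μM) were reacted with each biotinyl-aminoacyl-oxazolone at 2–1250 μM in 50 μL HEPES/NaCl/KCl/MgCl2/CaCl2 buffer with 5% acetonitrile, pH 6.9–7.0, for 90 minutes at room temperature.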

biotinyl-Trp-oxazolone = experiment: self-aminoacylation, catalytic enhancement (BWO) (fold over background); higher = more active; k-Seq, kA / k0A0; sequences stand for … in GGGAAUGGAUCCACAUCUACGAAUUC…UUCACUGCAGACUUGACGAAGCUG
In short: as §1

biotinyl-Ile-oxazolone = experiment: self-aminoacylation, catalytic enhancement (BIO) (fold over background); higher = more active; k-Seq, kA / k0A0; sequences stand for … in GGGAAUGGAUCCACAUCUACGAAUUC…UUCACUGCAGACUUGACGAAGCUG
In short: as §1

biotinyl-Leu-oxazolone = experiment: self-aminoacylation, catalytic enhancement (BLO) (fold over background); higher = more active; k-Seq, kA / k0A0; sequences stand for … in GGGAAUGGAUCCACAUCUACGAAUUC…UUCACUGCAGACUUGACGAAGCUG
In short: as §1

biotinyl-Met-oxazolone = experiment: self-aminoacylation, catalytic enhancement (BMO) (fold over background); higher = more active; k-Seq, kA / k0A0; sequences stand for … in GGGAAUGGAUCCACAUCUACGAAUUC…UUCACUGCAGACUUGACGAAGCUG
In short: as §1

biotinyl-Phe-oxazolone = experiment: self-aminoacylation, catalytic enhancement (BFO) (fold over background); higher = more active; k-Seq, kA / k0A0; sequences stand for … in GGGAAUGGAUCCACAUCUACGAAUUC…UUCACUGCAGACUUGACGAAGCUG
In short: as §1

Sequence	self-aminoacylation (biotinyl-Val-oxazolone)	self-aminoacylation (biotinyl-Trp-oxazolone)	self-aminoacylation (biotinyl-Ile-oxazolone)	self-aminoacylation (biotinyl-Leu-oxazolone)	self-aminoacylation (biotinyl-Met-oxazolone)	self-aminoacylation (biotinyl-Phe-oxazolone)
CUACUACAAACAAUCCGUCUG [Fam1A.1 aminoacylation ribozyme variant]	0.832	0.855	0.717	0.68	0.728	0.545
AAGUUGGCUAAUAGUCGCAAU [Fam3.1 aminoacylation ribozyme variant]	1.7	2.93	2.15	1.71	1.32	2.72
AAGUUAGCUAUUAGUCGCAAG [Fam3.1 aminoacylation ribozyme variant]	1.6	1.74	1.99	1.82	1.34	2.06
ACUGACCUAGGUCAUCGGGUG [Fam2.2 aminoacylation ribozyme variant]	5	7.32	4.97	7.25	6.84	32.9
AUUCACCAAGUUCAUCGGGUG [Fam2.2 aminoacylation ribozyme variant]	2.89	4.14	3.06	4.31	3.58	19.8
AUUACCCUGGUCAUCGAGGAA [Fam2.1 aminoacylation ribozyme variant]	2.44	4.88	2.3	5.25	5.91	8.38
GUUCACCUAGGUCAUCGGGCG [Fam2.2 aminoacylation ribozyme variant]	3.11	4.17	2.98	5.06	4.01	4.6
AUUCACCAGGGUCAUCGGGUG [Fam2.2 aminoacylation ribozyme variant]	5.45	6.99	4.8	9.42	7.51	57.5
AUUACCCUGGUCAUCGGGAGA [Fam2.1 aminoacylation ribozyme variant]	2.41	5.01	1.71	4.4	2.97	2.87
CCGCACUUCAAGGAAUCGGUC [Fam1B.1 aminoacylation ribozyme variant]	1.52	10.8	1.45	1.44	1.37	10.7
AUUCACCUUGGUCAUAGGGUG [Fam2.2 aminoacylation ribozyme variant]	1.16	1.05	0.995	1.59	1.21	1.15
CCACACGUCAAGCAAUCGAUC [Fam1B.1 aminoacylation ribozyme variant]	0.921	0.645	0.667	0.62	0.657	0.631
AUUCACGUAGGUCAGCGGGUG [Fam2.2 aminoacylation ribozyme variant]	2.48	2.71	2.48	3.04	2.52	16.1
AAGUUUGAUAAUAGUCGGAAG [Fam3.1 aminoacylation ribozyme variant]	0.572	0.436	0.514	0.536	0.556	0.778
AUUCACCUAGGUAAUCGGGUC [Fam2.2 aminoacylation ribozyme variant]	0.689	0.691	0.866	0.754	0.606	0.508
CCACAGUUCAAGCCAUCGGUC [Fam1B.1 aminoacylation ribozyme variant]	2.17	1.3	1.87	2.53	2.33	1.14
GCUCACUUCAAGCAAUCGGUC [Fam1B.1 aminoacylation ribozyme variant]	1.67	10.9	1.69	1.77	1.58	16.7
AAGUCCGCUAAUAGUCGCAAG [Fam3.1 aminoacylation ribozyme variant]	2.09	10.7	2.43	2.02	2.99	46.3
CCACACUUCAAGCAGUAGGUC [Fam1B.1 aminoacylation ribozyme variant]	0.815	0.401	0.633	0.51	0.425	0.807
CCACGCUUUAAGCAAUCGGUC [Fam1B.1 aminoacylation ribozyme variant]	0.787	0.998	0.737	0.682	0.713	1.27
AUUACCCUGGUAAUCGAGUCA [Fam2.1 aminoacylation ribozyme variant]	0.838	0.473	0.825	0.783	0.902	0.569

Sequence	self-aminoacylation (biotinyl-Val-oxazolone)	self-aminoacylation (biotinyl-Trp-oxazolone)	self-aminoacylation (biotinyl-Ile-oxazolone)	self-aminoacylation (biotinyl-Leu-oxazolone)	self-aminoacylation (biotinyl-Met-oxazolone)	self-aminoacylation (biotinyl-Phe-oxazolone)
AGUACCCUGGUCACCGAGUGA [Fam2.1 aminoacylation ribozyme variant]	4.11	11.1	4.52	9.52	8.83	54.5
CUUACCCUGGUCAUCGAGUGU [Fam2.1 aminoacylation ribozyme variant]	9.84	25.6	8.72	24.6	26.4	102
AUUCACCUAGGUCCACGGGUG [Fam2.2 aminoacylation ribozyme variant]	4.27	6.34	3.85	9.94	7.25	48.5
CCACACUUCAAGCAAUCGCGC [Fam1B.1 aminoacylation ribozyme variant]	3.35	2.44	2.08	3.04	2.16	6.7
ACUCACCUAGGUCAUCCGGUG [Fam2.2 aminoacylation ribozyme variant]	5.7	7.81	4.6	7.63	6.22	39.5
CUACUUCUAACAAGCGGUCUG [Fam1A.1 aminoacylation ribozyme variant]	0.694	0.64	0.801	0.658	0.708	0.708
AUUACCCUGGUCAUCGUGAGA [Fam2.1 aminoacylation ribozyme variant]	0.789	0.867	0.703	0.777	0.897	0.858
CUACUUUAAACAAUCGGUCUU [Fam1A.1 aminoacylation ribozyme variant]	0.885	0.6	0.888	0.738	1.09	0.805
CCACACUUGAAGCAACCGGUC [Fam1B.1 aminoacylation ribozyme variant]	1.04	0.938	0.886	0.699	0.694	0.953
AAGUUUGCUAAUAGUAGCAAC [Fam3.1 aminoacylation ribozyme variant]	1.15	0.859	1.09	0.631	0.942	1.08
CCACACCUGAAGCAAUCGGUC [Fam1B.1 aminoacylation ribozyme variant]	1.18	0.911	1.01	0.946	0.903	0.952
AAGUUUGCUAAUGGUCGCCAG [Fam3.1 aminoacylation ribozyme variant]	0.896	1.52	1.1	1.11	1.09	5.81
CCACACUUCAAGCAACCGGUG [Fam1B.1 aminoacylation ribozyme variant]	4	6.05	3.92	7.08	5.05	33.9
CCACACUUCGAUCAAUCGGUC [Fam1B.1 aminoacylation ribozyme variant]	0.871	0.903	0.826	0.777	0.767	0.966
AAGUUGGCUAAUAGUCGGAAG [Fam3.1 aminoacylation ribozyme variant]	1.48	1.15	1.47	1.1	1.22	2.31
CUUCACCUAAGUCAUCGGGUG [Fam2.2 aminoacylation ribozyme variant]	5.22	5.5	4.46	8.79	6.58	42.2
AACUUUGCUAAUAGUCCCAAG [Fam3.1 aminoacylation ribozyme variant]	1.64	1.51	1.92	1.6	1.56	3.69
AUACUUCAAACAAUCAGUCUG [Fam1A.1 aminoacylation ribozyme variant]	1.02	4.24	0.975	0.979	0.823	9.06
AUGACCCUGGUCACCGAGUGA [Fam2.1 aminoacylation ribozyme variant]	5.03	9.23	3.68	11.7	10.5	45.5
AAGAUUGCUAAAAGUCGCAAG [Fam3.1 aminoacylation ribozyme variant]	1.61	1.56	1.66	1.76	1.87	3.21
CUACUUCAAACAAUAGGACUG [Fam1A.1 aminoacylation ribozyme variant]	0.625	0.515	0.633	0.585	0.6	0.544
